Reference: patent US11391726B2, “MoT cells as a therapeutic screening tool for regulatory t-cell activity” (ARIZONA BOARD OF REGENTS ON BEHALF OF ARIZONA STATE …, priority 2018, dated 2022)

Assays:
[1] = tested on: MoT cells; test: CFSE suppression assay: Mabs pre-incubated with MoT cells, then co-cultured with CD3/28-stimulated CD4+ PBMC; type: cell-based, human; conditions: Mab pre-incubated with MoT cells 30 minutes, CD4+ PBMC:MoT ratio 1:1/2, CFSE flow cytometry (FIGS. 5D, 5F, 5H)
Procedure: (§1) Suppression assays. After IRB approval at Arizona State University (protocol #0601000548), peripheral blood was collected from healthy donors. After Ficoll-Paque Plus gradient separation of the buffy coat, CD4+ cells were purified using EasySep Human CD4^+ T Cell Isolation Kit (Catalog #17952 from Stemcell Technologies). Cells were allowed to rest overnight in cIMDM at 37° C. prior to labeling with CFSE (Carboxyfluorescein succinimidyl ester, from Cayman Chemica cat #10009853) dye to track cell divisions. The following day, CD4^+ T cells were counted, stained with CFSE, washed in PBS and then plated in IMDM with 10% FBS at 3×10^5 cells per well in a 48-well plate coated with OKT3 antibody at 5.0 ug/mL for 2 hours at 37° C. then washed twice in PBS before adding soluble co-stimulatory anti-CD28 (eBioscience clone CD28.6) at 5.0 ug/mL final concentration.
In some studies MoT and Jurkat cells were labeled with Cell Trace FarRed dye (Thermofisher) to gate MoT and Jurkat cells away from CD4^+ PBMC in flow cytometry analysis. Two-fold serial dilutions of MoT and Jurkat cells were added to CD4^+ PBMC, starting at 1.5×10^5 MoT and Jurkat cells (1:1/2 ratio CD4^+ T cells:tumor cells). Final volume per well was 1 mL. Cells were incubated for 5 days. […]

[2] = tested on: CD4+ PBMC; test: CFSE proliferation assay: Mabs co-incubated with CD3/28-stimulated CD4+ PBMC without MoT cells; type: cell-based, human; conditions: no MoT cells (FIGS. 5C, 5E, 5G)
Procedure: as §1
(FIG. 5A) Unstimulated PBMC. (FIG. 5B) CD3/28-stimulated CD4^+ PBMC cell division without MoT cells. (FIG. 5C) Anti-GITR, (FIG. 5E) Anti-CCR4 mogamulizumab, and (FIG. 5G) anti-PDL-1 (atezolizumab) co-incubated with PBMCs. (FIG. 5D) Anti-GITR, (FIG. 5F) anti-CCR4 (mogamulizumab), and (FIG. 5H) anti-PDL-1 (atezolizumab) co-incubated with PBMCs and MoT cells (1:½ ratio).

B1: mogamulizumab (antibody, chains of the INN, looked up, V domains shown)
VH: EVQLVESGGDLVQPGRSLRLSCAASGFIFSNYGMSWVRQAPGKGLEWVATISSASTYSYYPDSVKGRFTISRDNAKNSLYLQMNSLRVEDTALYYCGRHSDGNFAFGYWGQGTLVTVSS
VL: DVLMTQSPLSLPVTPGEPASISCRSSRNIVHINGDTYLEWYLQKPGQSPQLLIYKVSNRFSGVPDRFSGSGSGTDFTLKISRVEAEDVGVYYCFQGSLLPWTFGQGTKVEIK
- reversal of MoT cell-mediated suppression of CD4+ PBMC proliferation [1]: None of the checkpoint inhibitor Mabs including anti-GITR reversed MoT cell-mediated suppression
- reversal of MoT cell-mediated suppression of CD4+ PBMC proliferation ([1]; listed as ant-CCR4): did not attenuate MoT Treg suppressive activity
- suppression or inhibition of CD4+ PBMC proliferation by the Mab alone [2]: do not suppress or inhibit
